The test system of assay [1] is HUVEC. Kind of assay: Neutralization test of vascular endothelial cell lumen formation inhibition using PB-1 (Example 35). It counts as cell-based, human. The settings on record: PB-1 pre-reacted with Glycer-AGEs-BSA; HUVEC, 8 hours. How it is done:
Matrigel matrix was prepared by the same operation as in Example 14.
10 μL of Glycer-AGEs-BSA (10 mg/mL) prepared in Example 1, 10 μL of phosphate-buffered saline (PBS, FUJIFILM Wako Pure Chemical Corp.), and 90 μL of the PB-1 antibody (10 mg/mL) or a control antibody (10 mg/mL) were added to a 1.5 mL tube (Watson) and left standing at room temperature for 10 minutes. Then, a supernatant was recovered by centrifugation at 14000 rpm for 15 minutes using a centrifuge (Thermo Fisher Scientific Inc.).
(3) A lumen formation inhibition test was conducted by the same operation as in Example 14. As shown in the drawing, HUVEC was confirmed to form a lumen in the Matrigel matrix in the control BSA addition group. […] Furthermore, this inhibition of lumen formation was neutralized by the reaction solution of PB-1.

Assay [2] relates to protein modified with the novel structure in human serum. Description: Western blotting of human serum protein purified with PB-1 antibody column (Example 37). It counts as binding. Particulars: PB-1 as primary antibody; versus secondary antibody only. On the procedure:
The solvent for the PB-1 antibody was replaced with a coupling buffer solution (0.2 M sodium carbonate, 0.5 M NaCl, pH 8.3) through a PD10 column (GE Healthcare Japan Corp.) to prepare 1 mL of a 10 mg/mL PB-1 antibody solution. The coupling support used was NHS-activated Sepharose 4 Fast Flow (GE Healthcare Japan Corp.). 10 mL of 1 mM HCl cooled in an ice bath was injected to 1 mL of NHS-activated Sepharose 4 Fast Flow, immediately thereafter mixed with the preliminarily prepared 10 mg/mL PB-1 antibody solution, and mixed by inversion (4° C., overnight) using a rotator (Taitec Corp.) so that the PB-1 antibody was immobilized to the coupling support. Then, 3 mL each of a buffer solution for blocking (0.1 M Tris-HCl, pH 8.0) and a buffer solution for washing (0.1 M sodium acetate, 0.5 M NaCl, pH 5.0) was injected thereto in order, and this operation was repeated three times. Finally, the solvent was replaced by the injection of 10 mL of PBS, followed by storage at 4° C.
The purification sample used was human serum (pool) (Cosmo Bio Co., Ltd.). […] Each fraction obtained by purification was analyzed by electrophoresis (SDS-PAGE) according to a routine method. […]

The target in assay [3] is Glycer-AGEs-BSA (Bos taurus, UniProt P02769). Description: Dissociation constant measurement, Biacore T200 (Example 8). It counts as binding. Particulars: Biacore T200, sensor chip CM5; ligand Glycer-AGEs-BSA; antibody 0 to 400 nM. How it is done: The dissociation constant (Kd value) of the monoclonal antibody SJ-5 was measured by the following approach: BSA containing AGEs derived from glyceraldehyde (Glycer-AGEs-BSA) was diluted with a 10 mM sodium acetate solution (pH 4.0) to prepare a ligand solution with a final concentration of 100 μg/mL. Biacore T200 (GE Healthcare Japan Corp.) was used for the immobilization of the ligand and the calculation of the KD value. The ligand solution was immobilized onto sensor chip CM5 (GE Healthcare Japan Corp.) using an amine coupling kit (GE Healthcare Japan Corp.). Subsequently, antibody dilution solutions containing the monoclonal antibody diluted into concentrations from 0 to 400 nM were prepared, and the Kd value was calculated.
Chain of Glycer-AGEs-BSA (P02769 25-607): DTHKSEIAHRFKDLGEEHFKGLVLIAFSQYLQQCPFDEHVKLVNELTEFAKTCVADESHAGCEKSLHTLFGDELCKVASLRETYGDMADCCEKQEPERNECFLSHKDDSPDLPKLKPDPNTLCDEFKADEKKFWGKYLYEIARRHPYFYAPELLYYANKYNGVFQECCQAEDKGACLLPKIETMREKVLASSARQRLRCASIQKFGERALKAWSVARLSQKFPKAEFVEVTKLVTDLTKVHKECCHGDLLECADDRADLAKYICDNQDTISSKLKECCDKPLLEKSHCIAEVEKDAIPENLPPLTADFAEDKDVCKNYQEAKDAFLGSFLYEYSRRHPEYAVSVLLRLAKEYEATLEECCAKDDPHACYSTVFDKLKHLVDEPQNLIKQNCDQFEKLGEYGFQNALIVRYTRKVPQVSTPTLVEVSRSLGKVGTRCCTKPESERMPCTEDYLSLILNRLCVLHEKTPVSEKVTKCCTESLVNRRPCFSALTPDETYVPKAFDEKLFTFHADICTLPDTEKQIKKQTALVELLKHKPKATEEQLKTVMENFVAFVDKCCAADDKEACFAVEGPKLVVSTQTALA
(In general: SPR reads the build-up and loss of mass on a sensor chip optically.)

A short description of assay [4]: Reactivity of SJ-5 with Lys-hydroxy-triosidine by competitive ELISA (Example 18). It counts as binding. Particulars: immobilized Glycer-AGEs-BSA. How it is done: A solution of BSA containing AGEs derived from glyceraldehyde (stock solution: 10 mg/mL PBS solution) prepared into 1 μg/mL in a coating solution was added at 100 μL/well to a 96-well microtiter plate (COSTAR) and incubated overnight at 4° C.
Each well after the immobilization treatment was washed three times with a washing solution (300 μL), and a blocking solution (200 μL) was added thereto and left at room temperature for 1 hour.
GAL691 (prepared in Example 16) and Lys-hydroxy-triosidine (prepared in Example 17) were each dissolved in a phosphate buffer solution (0.2 M, pH 7.4) to prepare a 10 mg/mL solution. Sample solutions of 2-fold dilution series from 0.625 to 10 mg/ml (5 points) were further prepared by dilution with a diluting solution. Dilution solutions were also prepared from a blank solution containing no sample in the same way as above. […]
Absorbance was measured at a dominant wavelength of 450 nm and a sub-wavelength of 650 nm with a microplate reader (Cytation 5, BioTek Instrument Inc.), and the absorbance at the sub-wavelength was subtracted from the absorbance at the dominant wavelength. Change in the absorbance of GAL691 and Lys-hydroxy-triosidine was indicated as relative values to the absorbance of the blank solution.
On the technique in general: In an ELISA, binding on a coated surface is turned into a signal by an enzyme label.

B1: PB-1: mouse monoclonal antibody raised against A-peak-BSA; heavy-chain variable region SEQ ID NO 18, light-chain variable region SEQ ID NO 22 (antibody, listed as Mus musculus, V domains shown)
VH: EVRLQQSGPELVKPGTSVKISCKASGYSFTGYYMHWVKQSPVKSLEWIGRIIPYNGATSYNQNFKDKASLTVDKSSRTAYMDLHSLTSEDSAVYYCARSRYYGRAPYYFDYWGQGTTLTVSS
VL: DVVVTQTPLSLPVSLGDQASISCRSSQSIVHSNGNTYLEWYLQKPGQSPKLLIYKVSNRFSGVPDRISGSGSGTDFTLKISRVEAGDLGVYSCFQGSHVPFTFGSGTKLEIK
As for B1, in assay [1], the “neutralization of lumen formation inhibition by Glycer-AGEs-BSA” value is “neutralized”. For the same molecule, the “protein band detection in Western blotting” value in assay [2] is on record as “a band was detected”.

B2: SJ-5: mouse monoclonal antibody raised against GAL13-MSA; heavy-chain variable region SEQ ID NO 4, light-chain variable region SEQ ID NO 8 (antibody, listed as Mus musculus, V domains shown)
VH: EVMLVESGGRLVKPGGSLKLSCAASGFTFSSYGMSWVRQTPEKRLEWVATISGGGSYTYYPDSVKGRFTISRDNVKNNLYLQMSSLRSEDTALYYCARRGAYGDYGWFAYWGQGTLVTVSA
VL: DIVLTQSPATLSVTPGDSVSLSCRASQSINNNLHWYQQKSHESPRLLIKCASQSISGIPSRFSGSGSGTDFTLSINSVETEDFGMYFCQQSNSWPLTFGAGTKLELK
The term Kd denotes the concentration at which binding is half-saturated. B2 registered a Kd in assay [3] of 57.4 nM. In addition, the “recognition of Lys-hydroxy-triosidine” value in assay [4] is given as “does not recognize”.

Source of the values: patent US12391751B2, “Antibody against advanced glycation end products and use thereof” (Bloom Technology Corporation, priority 2018, dated 2025).
